Test results from article PMC6735392, “The miR-26a/AP-2α/Nanog signaling axis mediates stem cell self-renewal and temozolomide resistance in glioma”.

B1: Nanog(-568/-544) mut (dsDNA)
DNA 1: GATCCGCCTATTACGTCATCCCAAT
DNA 2: ATTGGGATGACGTAATAGGCGGATC
B2: Nanog(-527/-503) WT (dsDNA)
DNA 1: GGTGGGCCACCGCGCCCGGCCTTTT
DNA 2: AAAAGGCCGGGCGCGGTGGCCCACC
B3: Nanog(-527/-503) mut (dsDNA)
DNA 1: GGTGGGCCACCAAGCCCATACTTTT
DNA 2: AAAAGTATGGGCTTGGTGGCCCACC
B4: Nanog(-568/-544) WT (dsDNA)
DNA 1: GATCCGCCTGCCACGGCCTCCCAAT
DNA 2: ATTGGGAGGCCGTGGCAGGCGGATC

Target: GST-AP-2α (UniProt P05549 1-437)
Sequence (P05549 whole entry): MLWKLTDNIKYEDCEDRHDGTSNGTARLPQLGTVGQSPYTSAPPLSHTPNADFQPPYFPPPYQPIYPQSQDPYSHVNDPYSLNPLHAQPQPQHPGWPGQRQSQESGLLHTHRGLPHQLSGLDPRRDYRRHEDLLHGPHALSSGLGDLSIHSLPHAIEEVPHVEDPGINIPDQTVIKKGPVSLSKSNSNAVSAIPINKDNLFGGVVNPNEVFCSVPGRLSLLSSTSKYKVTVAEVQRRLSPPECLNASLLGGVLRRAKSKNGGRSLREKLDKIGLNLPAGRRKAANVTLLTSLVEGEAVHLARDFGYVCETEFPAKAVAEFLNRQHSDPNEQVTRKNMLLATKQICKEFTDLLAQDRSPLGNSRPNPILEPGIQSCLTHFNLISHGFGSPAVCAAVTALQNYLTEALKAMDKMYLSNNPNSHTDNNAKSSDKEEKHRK
Assay: EMSA; EMSA/Gel-Shift Kit (Beyotime) binding buffer, 10 μL, 5 μg GST-AP-2α, 2 pmol biotin probe, 30 min room temperature, 4% nondenaturing gel; salt and pH not stated
Conditions: protein: recombinant, tags: GST, blunt

Binder | binding result (label: 3' biotin) | binding result (label: 3' biotin (hot probe))
B1 | no binding | –
B2 | – | binds
B3 | no binding | –
B4 | – | binds
